Measurements published in patent US20110159009A1 (published 2011).

Assays:
[1] = biological target: B20.4.1; assay: SPR (BIAcore); FIG. 10; 37 C; ~60 RU VEGF immobilized; bivalent model
[2] = biological target: B20.4.1; assay: SPR (BIAcore); FIG. 11; 37 C; ~1000 RU VEGF immobilized; 1:1 Langmuir model

Kd [1]	Kd [2]	Binder
0.02 nM	1.16 nM	hVEGF (ligand) APMAEGGGQNHHEVVKFMDVYQRSYCHPIETLVDIFQEYPDEIEYIFKPSCVPLMRCGGCCNDEGLECVPTEESNITMQIMRIKPHQGQHIGEMSFLQHNKCECRPKKDRARQENPCGPCSERRKHLFVQDPQTCKCSCKNTDSRCKARQLELNERTCRCDKPRR
0.37 nM	2.26 nM	mVEGF (ligand) APTTEGEQKSHEVIKFMDVYQRSYCRPIETLVDIFQEYPDEIEYIFKPSCVPLMRCAGCCNDEALECVPTSESNITMQIMRIKPHQSQHIGEMSFLQHSRCECRPKKDRTKPENHCEPCSERRKHLFVQDPQTCKCSCKNTDSRCKARQLELNERTCRCDKPRR
